In patent US20120237507A1 one finds EC50 data, which are given here for 1 substance.

This test concerns the target c-Met on A549 cells (UniProt P08581). In words: half-maximal binding, flow cytometry on A549 cells.
Chain of UniProt P08581 (P08581 25-1390 limits assumed): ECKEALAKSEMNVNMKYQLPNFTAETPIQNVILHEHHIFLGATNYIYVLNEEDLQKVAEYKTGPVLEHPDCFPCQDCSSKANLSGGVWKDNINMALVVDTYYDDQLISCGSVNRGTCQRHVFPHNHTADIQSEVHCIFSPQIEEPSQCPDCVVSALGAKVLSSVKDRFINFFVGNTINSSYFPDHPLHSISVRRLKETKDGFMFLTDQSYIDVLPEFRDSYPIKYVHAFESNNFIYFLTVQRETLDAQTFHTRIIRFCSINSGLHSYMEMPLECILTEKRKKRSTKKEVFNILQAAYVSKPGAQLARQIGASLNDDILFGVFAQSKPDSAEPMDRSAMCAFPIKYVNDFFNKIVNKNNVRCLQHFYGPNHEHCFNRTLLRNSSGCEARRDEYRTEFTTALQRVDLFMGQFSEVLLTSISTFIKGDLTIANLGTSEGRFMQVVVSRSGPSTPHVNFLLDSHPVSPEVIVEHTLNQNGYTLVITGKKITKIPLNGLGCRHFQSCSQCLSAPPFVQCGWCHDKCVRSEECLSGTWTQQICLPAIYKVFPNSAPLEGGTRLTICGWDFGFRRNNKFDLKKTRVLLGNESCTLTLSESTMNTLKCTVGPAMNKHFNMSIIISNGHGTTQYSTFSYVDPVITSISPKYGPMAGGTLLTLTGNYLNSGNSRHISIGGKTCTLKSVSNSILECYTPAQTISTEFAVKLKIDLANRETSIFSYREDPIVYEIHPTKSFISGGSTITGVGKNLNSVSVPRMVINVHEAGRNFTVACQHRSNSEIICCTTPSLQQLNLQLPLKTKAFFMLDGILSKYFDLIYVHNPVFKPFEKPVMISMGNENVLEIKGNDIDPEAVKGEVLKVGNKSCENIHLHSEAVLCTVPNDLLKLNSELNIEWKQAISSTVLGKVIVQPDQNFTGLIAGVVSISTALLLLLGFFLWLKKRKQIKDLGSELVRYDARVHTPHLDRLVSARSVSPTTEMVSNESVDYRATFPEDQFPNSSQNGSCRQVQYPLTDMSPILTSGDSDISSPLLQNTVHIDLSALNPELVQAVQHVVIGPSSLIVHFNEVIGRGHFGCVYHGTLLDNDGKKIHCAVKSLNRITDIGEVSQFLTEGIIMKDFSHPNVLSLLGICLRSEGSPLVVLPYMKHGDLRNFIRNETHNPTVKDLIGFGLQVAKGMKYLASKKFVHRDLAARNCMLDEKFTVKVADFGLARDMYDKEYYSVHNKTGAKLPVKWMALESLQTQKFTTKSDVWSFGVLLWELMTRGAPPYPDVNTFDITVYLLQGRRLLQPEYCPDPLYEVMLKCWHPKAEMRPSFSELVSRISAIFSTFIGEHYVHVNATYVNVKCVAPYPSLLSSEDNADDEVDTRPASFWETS

What is called EC50 is the concentration giving half of the maximal effect. A high value points to a need for much substance. Substance MetMAb/OA-5D5 (Genentech) (antibody) came in with an EC50 of 1.45 nM.
